Molecular target: the molecule itself
Experiment: crystal structure; hDAPK1 CD + ARD (2.0 Å), hDAPK2 CD + ARD (1.47 Å) and hDAPK3 CD (3.1 Å) crystallised by vapor diffusion; homodimers in the crystals

| Protein | binding result |
| --- | --- |
| human death-associated protein kinase 1, catalytic domain and most of the autoregulatory domain (hDAPK1 CD + ARD, residues 1-312) (domain or fragment, UniProt P53355 1-312, looked up, death-associated protein kinase 1, human, CD and most of the ARD, residues 1-312; Dimer in the crystal; also called hDAPK1 CD + ARD construct (1-312); source: E. coli BL21(DE3), purified (Ni-NTA, TEV cleavage, SEC); not shown: His6, N-terminal, cleaved) MTVFRQENVDDYYDTGEELGSGQFAVVKKCREKSTGLQYAAKFIKKRRTKSSRRGVSREDIEREVSILKEIQHPNVITLHEVYENKTDVILILELVAGGELFDFLAEKESLTEEEATEFLKQILNGVYYLHSLQIAHFDLKPENIMLLDRNVPKPRIKIIDFGLAHKIDFGNEFKNIFGTPEFVAPEIVNYEPLGLEADMWSIGVITYILLSGASPFLGDTKQETLANVSAVNYEFEDEYFSNTSALAKDFIRRLLVKDPKKRMTIQDSLQHPWIKPKDTQQALSRKASAVNMEKFKKFAARKKWKQSVRLI | binds |
| human death-associated protein kinase 3, catalytic domain (hDAPK3 CD, residues 1-274) (domain or fragment, UniProt O43293 1-274, looked up, death-associated protein kinase 3, human, CD, residues 1-274; Dimer in the crystal; also called hDAPK3 CD construct; source: E. coli Rosetta (DE3) pLysS, purified (glutathione Sepharose, TEV cleavage, SEC); not shown: GST, N-terminal, cleaved) MSTFRQEDVEDHYEMGEELGSGQFAIVRKCRQKGTGKEYAAKFIKKRRLSSSRRGVSREEIEREVNILREIRHPNIITLHDIFENKTDVVLILELVSGGELFDFLAEKESLTEDEATQFLKQILDGVHYLHSKRIAHFDLKPENIMLLDKNVPNPRIKLIDFGIAHKIEAGNEFKNIFGTPEFVAPEIVNYEPLGLEADMWSIGVITYILLSGASPFLGETKQETLTNISAVNYDFDEEYFSNTSELAKDFIRRLLVKDPKRRMTIAQSLEHSW | binds |

Reference: paper PMC4906247, “Death-Associated Protein Kinase Activity Is Regulated by Coupled Calcium/Calmodulin Binding to Two Distinct Sites” (Structure(London, England:1993), 2016)
